Measured values reported in US20240383982A1 (Genmab, published 2024).
Positions count from the first letter of the chain named. In names and notes the source's numbering stands.

Assays:
[1] = target: T1, mouse (Mus musculus) B7H4, full length, on HEK-293F cells (mouse, UniProt Q7TSP5 25-257); experiment: flow cytometry, HEK-293F cells transiently transfected with mouse B7H4, PE anti-human IgG F(ab')2 [panel Mouse B7H4]
T1 construct: Uniprot Q7TSP5; also called mouse B7H4
T1 sequence: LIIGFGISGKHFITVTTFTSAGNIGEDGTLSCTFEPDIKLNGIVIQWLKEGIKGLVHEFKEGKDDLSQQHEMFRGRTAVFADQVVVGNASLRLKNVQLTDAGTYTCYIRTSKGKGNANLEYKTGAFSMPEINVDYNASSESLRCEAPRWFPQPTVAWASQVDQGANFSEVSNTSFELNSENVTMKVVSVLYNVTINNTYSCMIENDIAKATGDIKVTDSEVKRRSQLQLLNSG
Experimental: (§1) Cells (3×10⁴ cells/well) were incubated in polystyrene 96-well round-bottom plates (Greiner bio-one, cat. no. 650180) with serial dilutions of antibodies (ranging from 0.000458 to 30 μg/mL in 4-fold dilution steps) in 100 μL PBS/0.1% BSA/0.02% azide (staining buffer) at 4° C. for 30 min. Experiments were performed in technical duplicate. After washing twice in staining buffer, cells were incubated in 50 μL secondary antibody at 4° C. for 30 min. As a secondary antibody, R-Phycoerythrin (PE)-conjugated goat-anti-human IgG F(ab′)₂ (1:500 in FACS buffer; Jackson ImmunoResearch Laboratories, Inc., West Grove, PA, cat. no. 109-116-098), was used. Cells were washed twice in staining buffer, re-suspended in 30 μL FACS buffer containing Topro-3 (1:10,000 dilution) and analyzed on an iQue Screener (Intellicyt Corporation, USA). Binding curves were analyzed using non-linear regression (sigmoidal dose-response with variable slope) using GraphPad Prism V7.02 software (GraphPad Software, San Diego, CA, USA).

[2] = target: T2, cynomolgus monkey (Macaca fascicularis) B7H4 transcript 1, full length, on HEK-293F cells (cynomolgus monkey, UniProt Q7Z7D3 25-282 (human entry)); experiment: flow cytometry, HEK-293F cells transiently transfected with cynomolgus monkey B7H4, PE anti-human IgG F(ab')2 [panel Cynomolgus monkey B7H4]
T2 construct: Uniprot A0A2K5U6P5; also called cynomolgus monkey B7H4; cynomolgus B7H4
T2 chain: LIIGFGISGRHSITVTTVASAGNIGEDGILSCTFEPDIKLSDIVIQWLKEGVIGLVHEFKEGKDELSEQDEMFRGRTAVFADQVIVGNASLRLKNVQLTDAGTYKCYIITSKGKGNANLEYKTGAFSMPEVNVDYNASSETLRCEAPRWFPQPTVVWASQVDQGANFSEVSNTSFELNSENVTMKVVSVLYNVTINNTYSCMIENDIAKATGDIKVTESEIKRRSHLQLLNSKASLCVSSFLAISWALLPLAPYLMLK
Experimental: as §1

[3] = target: T3, rat (Rattus norvegicus) B7H4, full length, on HEK-293F cells (rat, UniProt Q501W4 25-257); experiment: flow cytometry, HEK-293F cells transiently transfected with rat B7H4, PE anti-human IgG F(ab')2 [panel Rat B7H4]
T3 construct: Uniprot Q501W4; also called rat B7H4
T3 sequence: T1 sequence with R109H, Q228E
Experimental: as §1

[4] = target: T4, dog (Canis familiaris) B7H4, full length, on HEK-293F cells (dog, UniProt Q7Z7D3 25-282 (human entry)); experiment: flow cytometry, HEK-293F cells transiently transfected with dog B7H4, PE anti-human IgG F(ab')2 [panel Dog B7H4]
T4 construct: Uniprot F1P8R9; also called dog B7H4
T4 chain: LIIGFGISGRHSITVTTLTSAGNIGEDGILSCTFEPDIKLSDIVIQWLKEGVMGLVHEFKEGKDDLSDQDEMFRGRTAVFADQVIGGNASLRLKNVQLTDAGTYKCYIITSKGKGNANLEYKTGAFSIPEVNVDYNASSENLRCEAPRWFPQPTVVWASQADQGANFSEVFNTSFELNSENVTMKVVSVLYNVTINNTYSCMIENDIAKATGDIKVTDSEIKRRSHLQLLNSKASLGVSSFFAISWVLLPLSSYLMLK
Experimental: as §1

[5] = target: T5, human B7H4, full length, on cells (human, UniProt Q7Z7D3 25-282); experiment: flow cytometry on MDA-MB-468 tumor cells [MDA-MB-468 left panel]
T5 construct: Uniprot Q7Z7D3; Used for transfected HEK cells and for the B7H4-expressing human tumor cell lines (endogenous B7H4); also called VTCN1
T5 sequence: T2 chain with I53L, L242F, A252S
Experimental: as §1
Binding was analyzed by flow cytometry as described above.

[6] = target: T6, rabbit (Oryctolagus cuniculus) B7H4, full length, on HEK-293F cells (rabbit, UniProt Q7Z7D3 25-282 (human entry)); experiment: flow cytometry, HEK-293F cells transiently transfected with rabbit B7H4, PE anti-human IgG F(ab')2 [panel Rabbit B7H4]
T6 construct: Uniprot G1TQE8; also called rabbit B7H4
T6 chain: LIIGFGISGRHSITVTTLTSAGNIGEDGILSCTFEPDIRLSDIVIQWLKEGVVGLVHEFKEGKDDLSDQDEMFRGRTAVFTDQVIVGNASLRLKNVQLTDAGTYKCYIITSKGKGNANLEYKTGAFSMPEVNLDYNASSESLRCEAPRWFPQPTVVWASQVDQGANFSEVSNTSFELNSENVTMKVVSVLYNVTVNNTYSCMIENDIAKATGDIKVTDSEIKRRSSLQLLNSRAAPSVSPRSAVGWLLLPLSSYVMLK
Experimental: as §1

[7] = target: T2, cynomolgus monkey (Macaca fascicularis) …; experiment: flow cytometry, HEK-293F cells transfected with cynomolgus monkey B7H4 [panel Cynomolgus monkey B7H4]
Experimental: as §1

B1: IgG1-B7H4-C1-N52S-FEAR (antibody, V domains shown)
VH: QVQLQQWGAGLLKPSETLSLTCAVYGGSFSGYYWSWIRQPPGKGLEWIGEISHSGSTNYNPSLKSRVTISIDTSKNQFSLKLTSVTAADTAVFYCARGLFNWNFDSWGQGTLVTVSS
VL: DIQMTQSPSSLSASVGDRVTITCRASQGIRNDLGWYQQKPGKAPKRLIYGASSLQSGVPSRFSGSGSGTEFTLTISSLQPEDFATYYCLQHNSYPRTFGQGTTVEIKR
notes: Full length human IgG1 with L234F, L235E, D265A, K409R (FEAR) heavy chain constant region and kappa light chain; bivalent, monospecific; also called IgG1-B7H4-C1-052S-FEAR
EC50 (read off the curve) [1]: ~0.3 µg/mL
EC50 (read off the curve) [2]: ~0.2 µg/mL
EC50 (read off the curve) [3]: ~0.3 µg/mL
EC50 (read off the curve) [4]: ~0.3 µg/mL
EC50 (read off the curve) [5]: ~1 µg/mL
EC50 (read off the curve) [6]: ~0.3 µg/mL
EC50 (read off the curve) [7]: ~0.1 µg/mL

B2: IgG1-B7H4-C5-FEAR (antibody, V domains shown)
VH: QLQLQESGPGLVKPSETLSLTCTVSGGSIKSGSYYWGWIRQPPGKGLEWIGNIYYSGSTYYNPSLRSRVTISVDTSKNQFSLKLSSVTAADTAVYYCAREGSYPNQFDPWGQGTLVTVSS
VL: EIVMTQSPATLSVSPGERATLSCRASQSVSSNLAWYQQKPGQAPRLLIYGASTRATGIPARFSGSGSGTEFTLTISSLQSEDFAVYYCQQYHSFPFTFGGGTKVEIKR
notes: Full length IgG1 FEAR, kappa; variable domains from US20190085080A1
EC50 (read off the curve) [5]: ~0.2 µg/mL
binding result [7]: binds

B3: bsIgG1-huCD3-H101G-FEALxB7H4-C1-N52S-FEAR (bispecific antibody)
heavy 1: not shown
light 1: not shown
heavy 2: QVQLQQWGAGLLKPSETLSLTCAVYGGSFSGYYWSWIRQPPGKGLEWIGEISHSGSTNYNPSLKSRVTISIDTSKNQFSLKLTSVTAADTAVFYCARGLFNWNFDSWGQGTLVTVSSASTKGPSVFPLAPSSKSTSGGTAALGCLVKDYFPEPVTVSWNSGALTSGVHTFPAVLQSSGLYSLSSVVTVPSSSLGTQTYICNVNHKPSNTKVDKRVEPKSCDKTHTCPPCPAPEFEGGPSVFLFPPKPKDTLMISRTPEVTCVVVAVSHEDPEVKFNWYVDGVEVHNAKTKPREEQYNSTYRVVSVLTVLHQDWLNGKEYKCKVSNKALPAPIEKTISKAKGQPREPQVYTLPPSREEMTKNQVSLTCLVKGFYPSDIAVEWESNGQPENNYKTTPPVLDSDGSFFLYSRLTVDKSRWQQGNVFSCSVMHEALHNHYTQKSLSLSPGK
light 2: DIQMTQSPSSLSASVGDRVTITCRASQGIRNDLGWYQQKPGKAPKRLIYGASSLQSGVPSRFSGSGSGTEFTLTISSLQPEDFATYYCLQHNSYPRTFGQGTTVEIKRTVAAPSVFIFPPSDEQLKSGTASVVCLLNNFYPREAKVQWKVDNALQSGNSQESVTEQDSKDSTYSLSSTLTLSKADYEKHKVYACEVTHQGLSSPVTKSFNRGEC
notes: also called bslgG1-huCD3-H101G-FEALxB7H4-C1-N52S-FEAR; BslgG1-huCD3-H101G-FEALxB7H4-C1-N52S-FEAR
binding result [1]: binds
EC50 (read off the curve) [2]: ~0.6 µg/mL
binding result [3]: binds
binding result [4]: binds
binding result [6]: binds
